B1: IgG 15033 (antibody, V domains shown)
VH: EVQLVESGGGLVQPGGSLRLSCAASGFDLGGYSMHWVRQAPGKGLEWVAGIYASGGATAYADSVKGRFTISADTSKNTAYLQMNSLRAEDTAVYYCARSYYYGGFGMDYWGQGTLVTVSS
VL: DIQMTQSPSSLSASVGDRVTITCRASQSVSSAVAWYQQKPGKAPKLLIYSASDLYSGVPSRFSGSRSGTDFTLTISSLQPEDFATYYCQQSYRYPITFGQGTKVEIK
B2: peptide-IgG 33^LN1 (peptide N1 fused to the N-terminus of the LC of IgG 15033) (antibody, V domains shown)
VH: B1 VH
VL: B1 VL
B3: peptide-IgG 33^HR1 (peptide R1 fused to the N-terminus of the HC of IgG 15033) (antibody, V domains shown)
VH: B1 VH
VL: B1 VL

molecular target: SARS-CoV-2 S-protein extracellular domain (ECD) (SARS-CoV-2, Wuhan-Hu-1 (ancestral), biotin, site-specific (BirA reaction) on the AviTag); assay: BLI

Row | Binder | Kd [nM]
1 | B1 | 0.1
2 | B2 | < 0.001
3 | B3 | < 0.001

Reference: publication doi:10.1101/2021.11.29.470362 (bioRxiv, 2021)
